Source: PMC8378821

Tests used:
[1] = target: Mycobacterium smegmatis MSMEG_6251 soluble domain (msTiME-SD) (M. smegmatis mc^2155); experiment: crystal structure
[2] = target: Mycobacterium tuberculosis Rv3705c soluble domain (mtTiME-SD) (M. tuberculosis H37Rv); experiment: SEC-MALS

Row | Substance | stoichiometry N [1] | stoichiometry N [2]
1 | Mycobacterium smegmatis MSMEG_6251 soluble domain (msTiME-SD) (domain or fragment) | 8 | –
2 | Mycobacterium tuberculosis Rv3705c soluble domain (mtTiME-SD) (domain or fragment) | – | 16
